Results taken from patent US8257949B2, “Self-priming polysialyltransferase” (National Research Council of Canada, priority 2006, dated 2012).

Tests used:
Format in all cases: biochemical
[1] = biological target: T1, N. meningitidis polysialyltransferase PST-13 (MalE-PST fusion) (Neisseria meningitidis, UniProt Q51281); experiment: Sialyltransferase activity by capillary electrophoresis, apparent Km estimation; details: CE based assay, 37° C., 50 mM NaHEPES pH 7.5, 10 mM MgCl2, estimated, read-out: apparent Km for GD3-FCHASE
Procedure: (§1) For production of PST proteins, Cells grown in the presence of IPTG were lysed with an Avestin C5 Emulsiflex cell disrupter (Avestin Ottawa, Ontario) and centrifuged at 1000×g to pellet unbroken cells. MalE-PST fusions were purified using amylose resin as described by the manufacturer (New England Biolabs, Mississauga ON).
(§2) Measurement of sialyltransferase activity—Basic assays were performed at 37° C. in 10-40 μL volumes containing 50 mM NaHEPES pH 7.5, 10 mM MgCl2, 0.1-50 mM CMP-NeuAc, 0.01-5 mM labelled acceptor and various amounts of enzyme. Buffer optimization assays were done with the following buffers: 20 mM citrate-phosphate pH 6.0-8.0, 50 mM Na2PO4 pH 6.5-7.5, 50 mM NaHEPES pH 6.5-8.0, 50 mM TrisHCl pH 7.5-9.0. Metal optimization assays were performed with 10 mM CaCl2, CoCl2, MgCl2, MnCl2, NiCl2, or ZnSO4. For the magnesium titration, endogenous Mg^2+ was removed by addition of EDTA and then dialyzed against 20 mM TrisHCl pH 7.5. Reactions were stopped man equal volume of 50% acetonitrile, 1% sodium dodecylsulphate, 10 mM EDTA. Analysis of actions was done by capillary electrophoresis as previously described. See, e.g., Wakarchuk, W. W. and Cunningham, A. M., Methods Mol. Biol., 213:263-274 (2003)).
(§3) Acceptor synthesis—The GM3/GD3/GT3-FCHASE acceptors were synthesized from Lac-FCHASE on a milligram scale. […]

[2] = biological target: E. coli polysialyltransferase PST-05 (MalE-PST fusion) (Escherichia coli, UniProt Q57269); experiment: as above; details: CE based assay, 37° C., 50 mM NaHEPES pH 7.5, 10 mM MgCl2, estimated, read-out: apparent Km for GD3-FCHASE
Procedure: as §1, §2, §3

[3] = biological target: T1, N. meningitidis polysialyltransferase PST-13 (MalE-PST fusion); experiment: Acceptor inhibition in kinetic assays; details: GD3-FCHASE at concentrations over 2 mM
Procedure: as §2
Some degradation of the starting material was observed and was more significant at high acceptor concentrations (5 mM).

[4] = Comparison of PST-16 and PST-17 sialic acid polymerization, CE analysis
From the text: The dotted line represents PST-16; the solid line represents PST-17. Arrows indicate the positions of Lactose (lac), GD3, GQ4, and polysialylated products conjugated to more than four sialic acid residues. The amount of polysialic acid relative to all other sialylated species ([…] sialic acid moieties) is about 50% in for each reaction.
Sialylation of the starting material: (▪), +1 NeuAc; ( ? ), +2 NeuAc; (□), +3 NeuAc; ( ? ), 4 NeuAc; ( ? ), >4 NeuAc (▪). 6A is PST-16 with Lac-FCHASE substrate. 6B is PST-17 with Lac-FCHASE substrate. 6C is PST-16 with T-Ag-FCHASE substrate. 6D is PST-17 with T-Ag-FCHASE substrate.
A fusion of Cst-II from C. jejuni OH4384 and the E. coli PST protein (PST-16) was generated and compared to the and N. meningitidis fusion (PST-17). Enzymatic activities of the two fusion proteins were determined and compared. […] See, e.g., FIGS. 5 and 6.

[5] = PST-17 time course on disaccharide acceptor; details: single addition of enzyme, fixed donor concentration
Procedure: A comparison of acceptors substrates was performed using Lactose, N-acetyllactosamine, and Gal-β-1,3-GalNAc-α (T-Ag) disaccharide acceptors. […] See, e.g., FIG. 7.

[6] = Poly-sialylation of glycopeptide acceptor by PST17, TLC and CE analysis
Procedure: The control reaction lacked CMP-sialic acid. […] Disialylated products and products with more than 45 sialic acid residues are indicated with arrows.
The poly-sialyltransferase of PST17 was tested using a partially glycosylated IFNα2b[GalNAc-Gal-NeuAc]-FCHASE glycopeptide. Assay conditions were as follows: 50 mM NaHEPES pH 7.5, 5 mM MnCl2, 5 mM MgCl2, 5 mM CMP-NeuAc, 0.0684 mM IFNα2b[GalNAc-Gal-NeuAc]-FCHASE glycopeptide. Reactions were incubated at 37° C. for 1 hour and 2 hours. […] After 1 hour incubation at 37° C. there is 49.9% conversion to sialylated product and after 2 hours there is 62.5% conversion to sialylated product. […] A glycopeptide acceptor was also a very good acceptor for the PST-17 fusion protein, and long PSA polymers could be seen in CE analysis of those reactions. (Data not shown.) The glyco-peptide acceptors, NH2-VGVT[GalNAc-α-]ETP-COOH (SEQ ID NO:32), were obtained from Sussex Research Laboratories (Ottawa, Canada) and then N-terminally labelled with FCHASE as described for the amino-phenyl glycosides.

[7] = Activity of self-priming poly-sialyltransferase proteins in E. coli supernatant or pellet, CE assay; parameters: Specific Activity: unit not given here; details: for Activity / Specific Activity: 24 hour sample; for Percent GM3: FCHASE-GM3 found in the product
Procedure: The self-priming poly-sialyltransferase proteins were expressed in E. coli cells and growth conditions for optimal protein expression were determined. Similar results were obtained for all three fusions; therefore, results are shown only for the PST-17 fusion. Cells were grown at 20° C., 25° C. and 30° C. for four different time periods. Aliquots of 1.5 mL were harvested, sonicated, and then centrifuged at 10,000×g for 10 mm. Expression of the self-priming poly-sialytransferase proteins increased with time at all […] temperatures.
Enzymatic activities of the self-priming poly-sialytransferase proteins were confirmed. Only the 24 hour samples of FIG. 4 were assayed Assays were done using the following reaction mixture: 0.5 mM FCHASE-Lac, 50 mM NaHEPES pH 7.5, 10 mM MgCl2, 5 mM CMP-NeuAc and 50% volume bacterial supernatant or pellet Reactions were incubated at 37° C. for 10 min and analyzed by capillary electrophoresis. […] For example, in the PST-17 20° C. supernatant, 9% of the substrate is converted into product, but most product is FCHASE-GM3. In contrast, in the PST-21 20° C. supernatant, 7% of the substrate is converted into product with 68% FCHASE-GM3, the remaining products containing longer sialic acid polymers. […] The highest levels of activity are shown in bold font.

[8] = Polysialic acid synthesis, fusion protein versus mixture of unfused parent enzymes; details: T-Ag-containing glycopeptides
From the text: FIG. 9 provides a comparison of polysialic acid synthesis activity using a mixture of unfused Cst-II and PST-13 enzymes or the PST-17 fusion enzyme. The sialic acid acceptor was the glycopeptide interferon α2b-[TAg]-FCHASE. FIG. 9A is the unfused enzyme mixture: CST-81 and PST-13. FIG. 9B is the PST-17 fusion enzyme. Figure legend: IFNα2b-[TAg]-FCHASE (Starting material) (▪); +1 NeuAc ( ? ); +2 NeuAc (□); +3 NeuAc ( ? ); +4 NeuAc ( ? ); >4 NeuAc (▪).
In order to evaluate whether the fusion protein functions more efficiency than the unfused parent enzymes mixed together, we performed experiments where we controlled the stoichiometry of the individual sialyltransferases. The stoichiometry of the mixtures was calculated using gel densitometry. Care was taken not to overload the gels so that the protein bands were not saturated. Gels were stained with SYPRO Orange and protein was quantitated with software provided with Imager system. Reactions contained 4 μM enzyme based on the percentage present in the separate preparations.
See, e.g., FIG. 9. Although less striking, similar results were obtained using a mono-sialylated T-Ag-glycopeptide (S-T-Ag-glycopeptide) acceptor also. See, e.g., FIG. 10.

NeuAc-α2,8-NeuAc-α2,3-Gal-β1,4-Glc-β-FCHASE [GD3-FCHASE]
Km [1]: 120 µM
Km [2]: 145 µM
acceptor inhibition (productivity of the enzyme) [3]: decreased significantly

B1: PST-17: truncated CstII from OH4384 fused to the Neisseria Pst, SEQ ID NO:2 (protein)
chain: MKKVIIAGNGPSLKEIDYSRLPNDFDVFRCNQFYFEDKYYLGKKCKAVFYNPSLFFEQYYTLKHLIQNQEYETELIMCSNYNQAHLENENFVKTFYDYFPDAHLGYDFFKQLKDFNAYFKFHEIYFNQRITSGVYMCAVAIALGYKEIYLSGIDFYQNGSSYAFDTKQKNLLKLAPNFKNDNSHYIGHSKNTDIKALEFLEKTYKIKLYCLCPNSLLANFIELAPNLNSNFIIQEKNNYTKDILIPSSEAYGKFSKNINFGGGHMLKKIKKALFQPKKFFQDSMWLTTSPFYLTPPRNNLFVISNLGQLNQVQSLIKIQKLTNNLLVILYTSKNLKMPKLVHQSANKNLFESIYLFELPRSPNNITPKKLLYIYRSYKKILNIIQPAHLYMLSFTGHYSYLISIAKKKNITTHLIDEGTGTYAPLLESFSYHPTKLERNLIGNNLNIKGYIDHFDILHVPFPEYAKKIFNAKKYNRFFAHAGGISINNNIANLQKKYQISKNDYIFVSQRYPISDDLYYKSIVEILNSISLQIKGKIFIKLHPKEMGNNYVMSLFLNMVEINPRLVVINEPPFLIEPLIYLTNPKGIIGLASSSLIYTPLLSPSTQCLSIGELIINLIQKYSMVENTEMIQEHLEIIKKFNFINILNDLNGVISNPLFKTEETFETLLKSAEFAYKSKNYFQAIFYWQLASKNNITLLGHKALWYYNALYNVKQIYKMEYSDIFYIDNISVDFHSKDKLTWEKIKHYYYFADNRIGRDR
formation of long sialic acid polymers ([4]; CE analysis): formation of long polymers happens from the earliest time points
amount of polysialic acid relative to all other sialylated species ([4]; Lac-FCHASE acceptor, FIG. 5): about 50%
Lac-FCHASE consumed [5]: essentially all
T-Ag material consumed [5]: 72%
conversion to sialylated product ([6]; 1 hour incubation at 37° C.): 49.9%
conversion to sialylated product ([6]; 2 hours at 37° C.): 62.5%
sialic acid residues on products ([6]; CE analysis, FIG. 8): more than 45
substrate converted into product ([7]; 20° C. supernatant, 37° C. for 10 min): 9%
Activity ([7]; 20° C., P (pellet)): 3.270 mU/mL
Specific Activity ([7]; 20° C., P (pellet)): 8.959
Percent GM3 ([7]; 20° C., P (pellet)): 98%
Activity ([7]; 20° C., S (supernatant)): 5.570 mU/mL
Specific Activity ([7]; 20° C., S (supernatant)): 2.637
Percent GM3 ([7]; 20° C., S (supernatant)): 88%
Activity ([7]; 25° C., P (pellet)): 9.329 mU/mL
Specific Activity ([7]; 25° C., P (pellet)): 11.945
Percent GM3 ([7]; 25° C., P (pellet)): 59%
Activity ([7]; 25° C., S (supernatant)): 8.192 mU/mL
Specific Activity ([7]; 25° C., S (supernatant)): 3.378
Percent GM3 ([7]; 25° C., S (supernatant)): 67%
Activity ([7]; 30° C., P (pellet)): 13.355 mU/mL
Specific Activity ([7]; 30° C., P (pellet)): 15.228
Percent GM3 ([7]; 30° C., P (pellet)): 51%
Activity ([7]; 30° C., S (supernatant)): 3.976 mU/mL
Specific Activity ([7]; 30° C., S (supernatant)): 1.893
Percent GM3 ([7]; 30° C., S (supernatant)): 58%
polysialic acid product relative to the combination of unfused parent enzymes [8]: four times as much
polysialic acid product (PSA) ([8]; 4 μM enzyme): 17%
